The results in this text go back to the RNAGym collection of RNA variant scans (doi:10.1073/pnas.2313332121).

To fix the notation:
B1: TPR t1 (parent)
chain: GACCAAUCUGCCCUCAGAGCUCGAGAACAUCUUCGGAUGCAGAGGAGGCAGGCUUCGGUGGCGCGAUAGCGCCAACGUCCUCAACCUCCAAUGCAUCCCACCACAUGAUGAUGCCUGAAGAGCCUUGGUUUUUUG

Variants of B1 are the subject of this series. Briefly: polymerase ribozyme fitness, log enrichment relative to wild type (log ratio); higher = more active; in vitro selection for triplet polymerase activity. A digest of the protocol: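 For each subunit of a heterodimeric triplet polymerase ribozyme, a mutant library was built by PCR and transcribed, then taken through a single in vitro selection round in triplicate. Selection involved annealing to a biotinylated primer, the partner subunit and triplets, incubation frozen at −7 °C, gel excision of extended constructs, capture on streptavidin beads and RT-PCR. Genotypes were retained after Illumina sequencing of inputs and outputs only with ≥10 input reads and ≥1 read in each output. Fitness is defined as the logarithm of a genotype's enrichment relative to wild-type enrichment, using inverse-variance-weighted averages across replicates, with the logarithm taken to base 2.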
As to G71C U81C U129C U130A, the “polymerase ribozyme fitness (log ratio)” value is -3.37.
The value for A90U G113A G128A was -3.47.
On to G42C C88U U106A A121C U125A, for which the “polymerase ribozyme fitness (log ratio)” value is -1.81.
As for C12U A108G U130A, the figure is -3.19; as for C22G A27U C88U A121U, -2.51; as for A41U C76A U81A, -1.77.
Regarding C20G G57C, the “polymerase ribozyme fitness (log ratio)” value was -4.41.
For G39A G44A G77A, the “polymerase ribozyme fitness (log ratio)” value is -2.46.
As for A50G G77U C86G, the “polymerase ribozyme fitness (log ratio)” value was -1.1.
Turning to C34U C64U, the “polymerase ribozyme fitness (log ratio)” value is -3.93.
Regarding C20A A29U C62U A119U U129G, the “polymerase ribozyme fitness (log ratio)” value is -4.53.
As for A46C C104A A118U C123G, the figure is -1.15; as for U21A C56G C73A C99G G120A U131C, -7.97.
On to G10C C20U G48C C114A C123U, for which the “polymerase ribozyme fitness (log ratio)” value is -3.33.
For A43U U132A, the “polymerase ribozyme fitness (log ratio)” value is -1.08.
As for G63A C89G, the figure is -2.7; as for G44C A50G A111U C123A G135U, -5.29.
As for C70G A111G G135U, the figure is -4.58.
As for A18U A46G G52A A118U, the “polymerase ribozyme fitness (log ratio)” value was -2.9.
As for A26G C56U, the figure is -1.28; as for A5G A6C C11G C73A G93C, -1.55.
As for G10U C40U A41G A46C C64U, the figure is -5.98; as for A24G G69A, -4.71.
In the case of G44U U92A, the “polymerase ribozyme fitness (log ratio)” value was -3.67.
With C49A C102G C114U C115G, the “polymerase ribozyme fitness (log ratio)” value was -6.27.
The value for A95U A103G was -6.8; that for A6U G19A was -2.37; that for G17A A90C C101A C114G was -5.04.
Take G39U U92C C115U A119U: the “polymerase ribozyme fitness (log ratio)” value was -3.57.
The value for A29U A46C G48A A84C was -3.31; that for G10U C82G C85U G120C was 0.866; that for A29G G71A was -1.75.
The value for C8G U32C A90C was -0.367; that for C70G U78C G120A U130G was -2.19; that for A68G C82U was -2.87.
As for C56U U59A C101U G122A, the “polymerase ribozyme fitness (log ratio)” value is -1.81.
As for A16C C49G C101A, the “polymerase ribozyme fitness (log ratio)” value is -4.66.
The value for C98U G110A was -2.39; that for C8U G44A U109A was -5.08.
As for C34A G60A A103G C124U G135A, the figure is -5.23; as for C56U G57C C70A U92A, -6.45; as for C53U C85U G127C, -2.36.
For the variant C56A C99U, the “polymerase ribozyme fitness (log ratio)” value was -2.82.
As for C31U G36U G60C C73U C123U, the figure is -4.81; as for A18U C31U, -5.66; as for C12A C40U U59A A111G C124A, -0.777.
The value for G42U G69C G120U was -3.45; that for C13U C28G C101A C104A was -5.64; that for A50U U59G U112G was -0.842.
The value for C8A A16U G120U U130G was 1.06; that for G10C G42U G48A was -2.39.
Turning to C56U C73G, the “polymerase ribozyme fitness (log ratio)” value is -2.
As for A41C A105C, the figure is -5.23; as for G42U G45U C88G A90G, -1.09.
Regarding C8A C72U U87A C99U, the “polymerase ribozyme fitness (log ratio)” value is -2.56.
In the case of C94A C101G, the “polymerase ribozyme fitness (log ratio)” value was -2.45.
Regarding C56U G113A, the “polymerase ribozyme fitness (log ratio)” value is -0.858.
The value for C40G C115U was -2.07.
The value for A29G C62A was -2.33.
The value for A50C G71U C101G was -2.67; that for C12G C114U was -1.65; that for C40A C102U was -3.15.
As to U9A G10A C40A U78C G110U C123U, the “polymerase ribozyme fitness (log ratio)” value is -2.19.
The value for G69U C82A C104U was 0.152.
The value for C40A G45U G110A was -4.4.
The value for C53A G71C C85A G117A U125G was -5.65.
In the case of C11U A41G C56G C124A, the “polymerase ribozyme fitness (log ratio)” value was 1.04.
As for A16G C86U, the figure is -1.54; as for G57A A100U, -1.61.
For C40G U59A C72U G110C G117A A119C U129G U133G, the “polymerase ribozyme fitness (log ratio)” value is -7.24.
As for C40U C73G C123G U132A, the figure is 0.0747; as for G51U C53G C124A U133A U134G, -1.64.
Consider A74C U106A G120U C124G, for which the “polymerase ribozyme fitness (log ratio)” value was 1.17.
The value for C3U C11U C13G G63C U116C was -4.43.
The value for G52U U125G was -1.12; that for A46U G71C C73U was -3.63; that for G44C G52A G127A was -3.02.
The value for C8U G39U C49G G63A U78A G128A was -3.94.
Turning to A74G C80A C82U A118U, the “polymerase ribozyme fitness (log ratio)” value is -2.93.
With G77C C86G, the “polymerase ribozyme fitness (log ratio)” value is -1.47.
In the case of C40G C102U U116G C124U, the “polymerase ribozyme fitness (log ratio)” value was -4.94.
The value for G35U G113A was -6.27; that for U54A C72U C102G U112G was -5.88.
